Literature values in PMC12188314.

Target: Rab27A (Mus musculus) (UniProt Q9ERI2)
UniProt Q9ERI2, sequence (Q9ERI2 2-221): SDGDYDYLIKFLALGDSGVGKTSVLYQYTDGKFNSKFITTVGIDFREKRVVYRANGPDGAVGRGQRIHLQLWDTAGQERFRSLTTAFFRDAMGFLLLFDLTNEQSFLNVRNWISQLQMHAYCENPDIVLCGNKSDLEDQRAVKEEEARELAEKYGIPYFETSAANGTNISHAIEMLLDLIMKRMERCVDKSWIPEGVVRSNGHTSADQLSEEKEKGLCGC

Slp2-a SHD (from UniProt Q99N50)
Kd: 13 nM
